Results published in the DeepSol protein solubility set.

Assay: soluble on expression in E. coli; label from the status in PepcDB or PDB records

Sequence | soluble on expression in E. coli
MANFNVPKLGVFPVAAVFDIDNVPEDSSATGSRWLPSIYQGGNYWGGGPQALHAQVSNFDSSNRLPYNPRTENNPAGNCAFAFNPFGQYISNISSAQSVHRRIYGIDLNDEPLFSPNAASITNGGNPTMSQDTGYHNIGPINTAYKAEIFRPVNPLPMSDTAPDPETLEPGQTEPLIKSDGVYSNSGIASFIFDRPVTEPNPNWPPLPPPVIPIIYPTPALGIGAAAAYGFGYQVTVYRWEEIPVEFIADPETCPAQPTTDKVIIRTTDLNPEGSPCAYEAGIILVRQTSNPMNAVAGRLVPYVEDIAVDIFLTGKFFTLNPPLRITNNYFADDEVKENTVTIGNYTTTLSSAYYAVYKTDGYGGATCFIASGGAGISALVQLQDNSVLDVLYYSLPLSLGGSKAAIDEWVANNCGLFPMSGGLDKTTLLEIPRRQLEAINPQDGPGQYDLFILDDSGAYASFSSFIGYPEAAYYVAGAATFMDVENPDEIIFILRNGAGWYACEIGDALKIADDEFDSVDYFAYRGGVMFIGSARYTEGGDPLPIKYRAIIPGLPRGRLPRVVLEYQAVGMSFIPCQTHCLGKGGIISKV | not soluble
MSLIGLDLDSAPDLIQSVPAPRLRRQVWLRTASGQRLAYATSWWEASHVDEYLQNRSLPIWASLARLRTELYRDVRGIYYGNSEALQLGFGVDGPFWGRHYLFWHHGQPLTLIYEVFSPYLTKYLGPMQLSSRNGKILEHHHHHH | not soluble
QKTGIYDSLRLKLEIVKFYSPNERDAAFHSGNVEGTVIDYTGAAMQQAGGIDLQLVMRLDGYFRLVMSKDYTGESLETLKGKNLGISRNTVIEYTTDRIINTAGLDESEITKTEVNKIPLRLEMLRSGQIDAAVLPDPFITIAMADG | not soluble
MSSFVPNKEQTRTVLIFCFHLKKTAAESHRMLVEAFGEQVPTVKTCERWFQRFKSGDFDVDDKEHGKPPKRYEDAELQALLDEDDAQTQKQLAEQLEVSQQAVSNRLREMGKIQKVGRWVPHELNERQMERRKNTCEILLSRYKRKSFLHRIVTGDEKWIFFVNPKRKKSYVDPGQPATSTARPNRFGKKTMLCVWWDQSGVIYYELLKPGETVNAARYQQQLINLNRALQRKRPEYQKRQHRVIFLHDNAPSHTARAVRDTLETLNWEVLPHAAYSPDLAPSDYHLFASMGHALAEQRFDSYESVKKWLDEWFAAKDDEFYWRGIHKLPERWEKCVASDGKYFE | soluble
EDCQNLLKPCSLCEKRPRDGNIIHGRTGHLVTCFHCARRLKKAGASCPICKKEIQLVIKVFIA | soluble
MAHHHHHHMKPSSISGEAPPLAVVGGNCSVFGFDRFGAERYWTVTGDQVTAMALMPWTSVSDSGSAPLSLLVASDDFEVRVYDGEEAIATVHEVDRVQKLVPLWQPSRNLDTETAAADSAGRYAYLLENGTVGMYERGERVWRVRGKSVPVSAAFCDVDGDGVAELVIGWSNGRVEVRTDRGGGLEKGGSVLFRDTYSSAVAAVLSEDYRQDGVPLPVICTVDGTVRGLTLLETRKDEAAEVRQLQVLEALVQEKQQLAAQLTSLEEQLARRAAGAQDTTMPESGVEVRCCCSANLATKHVEVHVEVTGPAAKRGDIVVHSCLLQCEIWATAAEQDTIAFANAEPSTTLVCSFAHADDLPLNVSASVAVGPAFGDSYRIHEVTVRVPRFVMYQLPYTIPPEQQRQRQGKTVTYQQPDGCVLLQWRELLRLDVIERWLRHSFCVPEDVALLDANAPTDPVLHLELIHVRDGSSFGIEVRNAAASGAAFNTITLWSDHLAPCGAVIDAFVEDLKGGWADGRADPVAVRCEMPLELERLRAIFARVDEFNEVRMKLTTDMADAATVVKTLLGRAEDARLLGDMASMKKSYAVLYDVDQELLCENAKRINNYEELKLALKEVNTCIQQAGMVRIGPARAQLIASCRNALKENQVNSLLEIIRTGSE | not soluble
GPGSMQAIITTAKSFAGDEKRPRDVKAAAAAPVLDWATMYTRRPAGTSTLFTLEAMVAKRMELLAWIDQLMNSPNVRSFSVVLDEIGARLPIERRKHVTQHAADHVVVLGRDDSPAADDADSFRTPRLSVSRSSGSAALNAFVFEGDEDLISHLLARFAFCMSEQWRKWFVKTEEALLRARLKLQMAKYETDFLPSLMRDNGLPCDPLSDEQWQDPLLQEYIVYFAVFQGKQQSRSREDYFSVPMTLATRLIKTRSVLCLKGHAILHRDQAQEVFVTVFRSKLNKGLHEAYLARMRLTSNEEDEERETVMRMLDAFLEYFVSDPTSAIQEAASGAVSAGEVRRIAQTHFPLCMRQVDEHLRREGHLKHHGRFTYGLFLKAIGLSLQDSMTLFSSLMTVKGVAGNSEAFAKTAYGYNIRHNYGMEGKKTSYSSMSCATLLALPPVVDRFDCHGCPFRFKDEGAFRSMLLKEQLNPLGKEHPPLRPSASDIEEIVQDCKGQHYTRACYKYFVATHPGVKRDTLFRSPFEYYTLSREVGERPEEILSEQTTPARRLMTGDSLKRSMFTPTLKEDVIRERKSPP | not soluble
MSDVNAPAGLAALEARLQQDLAWLDLPAKPWVKPRTNAGQAVLDVAIIGGGMAGLALAAELRHLGVAAVIFDQSPAGFEGPWATTARMETLRSPKQLTGPALGLPALTFRAWYEAQFGADGWAALDKIPRLQWAEYLRWYRKALALDVRNEHRVSRVAPRTDGLVELDIMTPGQTRFMLARHVVLATGRDGLGGPWVPDFARQLPDHLWTHSAAGLQDDWFEGRRVAVIGGGASAMDSAATALEAGAQRVDLLIRRAELPRVNKGKGVGNPGMVHGYWRLPDIWKWRIRHYLNRQQVPPPRGSTLRVSRSGRARFLLDNPVLAVEANPAGGVWLQTSKARVEADFVVFATGFRTDFELRPEFAPFSSHIRVWQDRFEAPEGEADSELAVLPDLGNCFEFQEKTPGACPGLNHIHCFSYPAALSYGAVSGDIPAISEGSKRLAHALIGLLFNEDIALHFESMRSYAEPELLGDEWVASEPGTEELRPLEHHHHHH | not soluble
RLSTWARKQTAMSQTQDYECRSHNVDLPESRIPGSNTRLEWVEIIEPRTRERMYANLVTGECVWDPPAGVRIKRTSENQWWELFDPNTSRFYYYNASTQRTVWHRPQGCDIIPLAKLQTLKQNTESPRASAESSPGRGSSVSREGSTSSSLEPEPDTEKAQELPARAGRPAAFGTVKEDSGSSSPPGVFLEKDYEIYRDYSADGQLLHYRTSSLRWNSGAKERMLIKVADREPSFLAAQGNGYAPDGPPGVRSRRPSGSQHSPSLQTFAPEADGTIFFPERRPSPFLKRAELPGSSSPLLAQPRKPSGDSQPSSPRYGYEPPLYEEPPVEYQAPIYDEPPMDVQFEAGGGYQAGSPQRSPGRKPRPFLQPNKQGPPSPCQQLVLTKQKCPERFLSLEYSPAGKEYVRQLVYVEQAGSSPKLRAGPRHKYAPNPGGGSYSLQPSPCLLRDQRLGVKSGDYSTMEGPELRHSQPPTPLPQAQEDAMSWSSQQDTLSSTGYSPGTRKRKSRKPSLCQATSATPTEGPGDLLVEQPLAEEQPPCGTSLAPVKRAEGEAEGARGAAEPFLAQARLAWEAQQAHFHMKQRSSWDSQQDGSGYESDGALPLPMPGPVVRAFSEDEALAQQENRHWRRGTFEKLGFPQILLEKSVSVQTNLASPEPYLHPSQSEDLAACAQFESSRQSRSGVPSSSCVFPTFTLRKPSSETDIENWASKHFNKHTQGLFRRKVSIANMLAWSSESIKKPMIVTSDRHVKKEACELFKLIQMYMGDRRAKADPLHVALEVATKGWSVQGLRDELYIQLCRQTTENFRLESLARGWELMAICLAFFPPTPKFHSYLEGYIYRHMDPVNDTKGVAISTYAKYCYHKLQKAALTGAKKGLKKPNVEEIRHAKNAVFSPSMFGSALQEVMGMQRERYPERQLPWVQTRLSEEVLALNGDQTEGIFRVPGDIDEVNALKLQVDQWKVPTGLEDPHVPASLLKLWYRELEEPLIPHEFYEQCIAHYDSPEAAVAVVHALPRINRMVLCYLIRFLQVFVQPANVAVTKMDVSNLAMVMAPNCLRCQSDDPRVIFENTRKEMSFLRVLIQHLDTSFMEGVL | soluble
MPSASASRKSQEKPREIMDAAEDYAKERYGISSMIQSHEKPDRVLVRVRDLTIQKADEVVWVRARVHTSRAKGKQCFLVLRQQQFNVQALVAVGDHASKQMVKFAANINKESIVDVEGVVRKVNQKIGSCTQQDVELHVQKIYVISLAEPRLPLQLDDAVRPEAEGEEEGRATVNQDTRLDNRVIDLRTSTSQAVFRLQSGICHLFRETLINKGFVEIQTPKIISAASEGGANVFTVSYFKNNAYLAQSPQLYKQMCICADFEKVFSIGPVFRAEDSNTHRHLTEFVGLDIEMAFNYHYHEVMEEIADTMVQIFKGLQERFQTEIQTVNKQFPCEPFKFLEPTLRLEYCEALAMLREAGVEMGDEDDLSTPNEKLLGHLVKEKYDTDFYILDKYPLAVRPFYTMPDPRNPKQSNSYDMFMRGEEILSGAQRIHDPQLLTERALHHGIDLEKIKAYIDSFRFGAPPHAGGGIGLERVTMLFLGLHNVRQTSMFPRDPKRLTP | soluble
